Measurements from the DeepSol protein solubility set.

Assay: soluble on expression in E. coli; label from the status in PepcDB or PDB records

Sequence | soluble on expression in E. coli
MGSDKIHHHHHHMKLAVYVHVPFCKSKCVYCDFYSVVSEKFDEYFSHLLREIDLYEEVLSESEIKTVYFGGGTPSVVPPSFLKMVLEKLERVSRGFTPDEITIEVNPESVETEKLKIYKQIGINRISLGVQACDDTVLKNAGRLYKEETLKKKAKIVLEQFENVNFDFILGLPGETDITLKKDFRFLEEFPPQHVSLYLLEVDERTRLFDLIQKGLVELPEEDDVERRHDLFVEFLKERGFLRYEISNFAKPGKKSLHNLFYWRNENYLGLGVSAGGHIGRFRYVNASDLKEYEEKITKGELPYEYVHENTEEEEALETVFMGLRIKEGVELNRVKILLPLLEKLQKKYPCYLKVKNGKIFLSEDGMNFSKKILSDLIEWYREGGR | not soluble
MGSDKIHHHHHHMNYLQIARNSLAAEQNALAKLSQNLNQQFNQVVELILNCEGRLVVGGIGKSGLIGKKMVATFASTGTPSFFLHPTEAFHGDLGMLKPIDIVMLISYSGESDDVNKLIPSLKNFGNKIIALTGNLNSTLAKHADYILDISVEREACPNNLAPTTSALVTLALGDALAVSLITARNFQPADFAKFHPGGSLGRRLLCRVKDQMQVRLPKVTENTNFTDCLTVMNEGRMGVALVMENENLKGIITDGDIRRALSANGTNTLNKTAKDLMTSNPKTINYNTYLSEAENFMKEKKIHSLVVVDDQNKVIGLVEFSS | not soluble
GSHMLGERLGIPAPRRIEAFDNSNIYGADPVSALVVFLDGKPAKKEYRKYKVKTVAGPNDYETMREVVRRRYTRVLKEGLPLPDLIIIDGGKGHLSAVRDVLENELGLDVPLAGLAKDEKHRTSELLAGDPPDVVPLDRQSQEFYLLQRIQDEVHRFAVMFHRKTRQKTMFHSVLDDIPGVGEKRKKALLNYFGSVKKMKEATVEELQRANIPRAVAEKIYEKLHE | soluble
MIDQLQVGPNPLVGLLDDVHMLEVQRDSGVANILNSPEIKKRHYNATRKRVNRRDSTIVEPEAKSRKMDENWTGVGTESESTDCVETTETRFTWFKAQTKHPGLAKSLQSEVTKVGLSIVDLQHCTLPCKSINYNFHFYSFKGLSREDSKKFEEMIDQNFVNNFCAENLLNKEDKNFFYYDLGYKQVVSLSMLATYFKIKNEQPLLHPLKMLLNKQLLKKAFEDADTHVELKKYLSKNGYSKLVQWMEEMTQ | not soluble
MGSDKIHHHHHHMDYTRYVVQPGDSIYKIANAYKIEMSDIINLNHLKHPDRIYPGQILLLPTYEFKDTLPGEIPEPNFTYAMWLFDVYAGKDSELSAVTTYLYQAVVLDRPEFDELLRPIAYDELRHLEQLAWCIRFLGVDPRYGSFSKGRWFDWRSRYLNYSTELCVILDHNMKDEAAAVKHYTDLAQKIPIPEIQTILLQLAADEERHYQCLAQAKTRFCGCGSSQTQHIKESSNGEEL | not soluble
MNPKIVFFDIDDTLYRKYTDTLRPSVKTAVAALRGKGILTALATGRSLATIPEKVRDMMAEAGMDAVVTINGQFALLHGKTVREVPMDAGLMGRVCAHLDGLGMDYAFVGGEGIAVSALSECVCRALKHIASDFFADKDYFSSKPVYQMLVFAEENEMPL | not soluble
MGSDKIHHHHHHMKRVKEQIKYLALLAICLLSGCSDFLDSYNPSAVTDDFYNTKEGQQKLLTDINARYRNVFNTGELQYYGTDIYMAISEEPAERMFNGYDKTFNSTAPIVGDYWKVLYKIVQESNILLNRCTPDIAGSDYTSLTAQARFFRAMAYYYLVETFGPVPLLTEENTSVIQQAERTGEQAIYTFIITELNDIKDKLDMTTISAGKVTNAAVIHFLGKMYLTRAYKSFAETDDFSNAATTFDLLVENPASGYALQENYAALFDENNQANSEVIWAIQYGLDKNYRGDGNPQQAQFGFNIVALEPDLFIKNQNDYSSVSRKYWVNPKAHELYTDPEADTRYDATFKREYYINNPDNADYGKLGIYFPRWNDKSGMSNNAKRFYPFKQDDEYVWYPQSTALPVLETASDRMPMVRKFSDTKIQWGEGGSREDVIFRLGDTYLLCAEAYLGAGNKKLALERINSIRKRAAKDATAYEAMKLTDLDINVIMDERARELMGEHDRWFDLKRTQTLLTRVPAYNPFVVKYDNLNKNHLVRPIPQDERNKVDGLSQNEGY | not soluble
GMTMPIFNISDDVDLVPAMPAEGRDGGSYRRQIWQDDVENGTIVAVWMAEPGIYNYAGRDLEETFVVVEGEALYSQADADPVKIGPGSIVSIAKGVPSRLEILSSFRKLATVIPKP | soluble
